Test results: patent US20260043020A1, “BINDING MEMBERS WITH ALTERED DIVERSITY SCAFFOLD DOMAINS” (priority 2016, published 2026)

What was measured:
[1] = biological target: trypsin; test: flow cytometry, biotinylated trypsin with streptavidin-APC
[2] = biological target: trypsin; test: flow cytometry of HEK293 cells 15 days post transfection, biotinylated trypsin/streptavidin-APC (FL4) against anti-Fc-PE (FL2)
[3] = biological target: β-galactosidase; test: monoclonal phage TRF ELISA on B-galactosidase
Chain of β-galactosidase (P00722 2-1024): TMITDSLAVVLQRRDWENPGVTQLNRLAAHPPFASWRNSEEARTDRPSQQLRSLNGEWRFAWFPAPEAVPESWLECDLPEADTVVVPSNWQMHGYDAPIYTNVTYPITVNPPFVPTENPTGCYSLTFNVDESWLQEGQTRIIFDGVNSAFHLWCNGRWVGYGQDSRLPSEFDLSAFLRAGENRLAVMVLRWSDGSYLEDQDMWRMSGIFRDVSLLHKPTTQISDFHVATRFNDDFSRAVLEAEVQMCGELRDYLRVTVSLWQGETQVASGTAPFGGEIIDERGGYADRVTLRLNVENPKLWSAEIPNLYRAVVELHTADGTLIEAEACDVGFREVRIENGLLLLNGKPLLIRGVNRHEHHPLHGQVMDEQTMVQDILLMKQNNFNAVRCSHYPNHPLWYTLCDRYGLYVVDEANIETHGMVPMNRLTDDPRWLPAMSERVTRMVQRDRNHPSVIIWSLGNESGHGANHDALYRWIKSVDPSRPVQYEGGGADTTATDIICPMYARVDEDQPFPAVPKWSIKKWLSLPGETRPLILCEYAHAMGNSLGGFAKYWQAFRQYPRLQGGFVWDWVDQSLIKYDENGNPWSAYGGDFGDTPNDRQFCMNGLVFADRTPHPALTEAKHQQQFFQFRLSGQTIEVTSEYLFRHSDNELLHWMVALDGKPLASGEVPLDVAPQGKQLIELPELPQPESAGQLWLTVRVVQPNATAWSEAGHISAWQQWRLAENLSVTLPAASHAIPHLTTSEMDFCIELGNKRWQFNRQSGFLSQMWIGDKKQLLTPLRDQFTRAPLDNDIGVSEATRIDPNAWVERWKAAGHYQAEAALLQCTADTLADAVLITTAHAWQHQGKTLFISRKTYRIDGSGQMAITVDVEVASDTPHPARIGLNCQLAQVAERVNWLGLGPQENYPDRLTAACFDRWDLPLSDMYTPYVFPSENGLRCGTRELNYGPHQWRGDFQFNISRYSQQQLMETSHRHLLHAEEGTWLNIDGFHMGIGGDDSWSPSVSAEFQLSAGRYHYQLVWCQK

B1: KB_A07 scFv-Fc, membrane anchored on HEK293 cells (Fc fusion)
VH: EVQLVESGGGLVRPGGSLRLSCAASGFTFSSYAMSWVRQAPGKGLEWVSAISGSGGSTYYADSVKGRFTISRDNTKNSLYLQMTSLRADDTAFYYCVKDFGPGYGTGWFDYWGPGTLVTVSS
VL: DIQMTQSPSSLSASVGDRVTITCRASQSISSYLNWYQQKPGKAPKLLIYAAGVCPRILMRCKQDSDCLAGCVCGPNGFCGSRSGVPSRFSGSGSGTDFTLTISSLQPEDFATYYCQQGASPPYTFGQGTKVEIKRT
[1]
  % of transfected HEK293 cells dual stained for Fc and trypsin: 34%
[2]
  cells in Q1 (trypsin/streptavidin-APC positive, anti-Fc-PE negative): 3.65%
  cells in Q2 (anti-Fc-PE positive and trypsin/streptavidin-APC positive): 33.8%
  cells in Q3 (anti-Fc-PE positive, trypsin/streptavidin-APC negative): 11.1%

B2: KB_A12 scFv-Fc, membrane anchored on HEK293 cells (Fc fusion)
VH: EVQLVESGGGLVRPGGSLRLSCAASGFTFSSYAMSWVRQAPGKGLEWVSAISGSGGSTYYADSVKGRFTISRDNTKNSLYLQMTSLRADDTAFYYCVKDFGPGYGTGWFDYWGPGTLVTVSS
VL: QSVLTQPPSVSEAPRQRVTITCSGSSSNIGNNAVNWYQQLPGKAPKLLIYAAGRCPRILMRCKQDSDCLAGCVCGPNGFCGANSGVSDRFSAAKSGTSASLAINGLRSEDEADYYCAAWDDSLNGYVFGTGTKLTVLGQP
[1]
  % of transfected HEK293 cells dual stained for Fc and trypsin: 11%
[2]
  cells in Q1 (trypsin/streptavidin-APC positive, anti-Fc-PE negative): 1.54%
  cells in Q2 (anti-Fc-PE positive and trypsin/streptavidin-APC positive): 11.2%
  cells in Q3 (anti-Fc-PE positive, trypsin/streptavidin-APC negative): 3.78%

B3: KB A12_B-gal_F07 (scFv, V domains shown)
VH: EVQLVESGGGLVRPGGSLRLSCAASGFTFSSYAMSWVRQAPGKGLEWVSAISGSGGSTYYADSVKGRFTISRDNTKNSLYLQMTSLRADDTAFYYCVKDFGPGYGTGWFDYWGPGTLVTVSS
VL: AVNWYQQLPGKAPKLLIYAAGRCRTTANVRRHCKQDSDCLAGCVCGPNGFCGANSGVSDRFSAAKSGTSASLAINGLRSEDEADYYCAAWDDSLNGYVFGTGTKLTVLG
[3]
  TRF signal: 246000
